From US20240122983A1 (SHATTUCK LABS, published 2024)
Like-named read-outs stand apart in the source and are kept apart here.

T1: recombinant mouse m4-1BB protein (mouse, UniProt P20334 24-187)
T1 sequence (looked up): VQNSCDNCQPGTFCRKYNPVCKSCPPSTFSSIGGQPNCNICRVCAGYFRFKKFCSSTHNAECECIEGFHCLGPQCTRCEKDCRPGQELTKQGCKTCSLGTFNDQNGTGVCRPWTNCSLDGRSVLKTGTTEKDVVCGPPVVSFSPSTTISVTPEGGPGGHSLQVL

T2: recombinant mouse mFLT3 protein (mouse, UniProt Q00342 28-544, limits assumed)
T2 sequence (looked up): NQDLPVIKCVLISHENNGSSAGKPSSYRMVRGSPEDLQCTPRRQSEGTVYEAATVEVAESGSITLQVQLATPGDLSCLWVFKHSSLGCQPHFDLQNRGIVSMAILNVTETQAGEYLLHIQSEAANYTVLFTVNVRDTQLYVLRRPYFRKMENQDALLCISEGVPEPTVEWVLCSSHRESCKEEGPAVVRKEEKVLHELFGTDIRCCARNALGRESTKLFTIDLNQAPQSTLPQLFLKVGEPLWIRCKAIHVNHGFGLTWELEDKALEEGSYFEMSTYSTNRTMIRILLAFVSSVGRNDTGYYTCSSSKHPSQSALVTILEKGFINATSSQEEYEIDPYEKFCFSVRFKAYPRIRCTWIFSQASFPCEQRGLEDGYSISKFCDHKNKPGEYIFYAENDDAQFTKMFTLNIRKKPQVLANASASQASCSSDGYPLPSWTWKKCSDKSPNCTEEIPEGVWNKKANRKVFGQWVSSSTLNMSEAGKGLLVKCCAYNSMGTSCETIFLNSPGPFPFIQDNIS


How the values were obtained:
[1] = biological target: T3, anti-mIgG; experiment: ELISA: plate-bound anti-mIgG (10ug/ml), detection anti-mIgG-HRP (1:1000)
T3 construct: capture antibody of the mFc ELISA; also called Capture Ab: anti-mIgG(10ug/ml)
Text: (§1) Recombinant mFLT3L protein was used to generate a standard curve. […] A mouse whole IgG was used to generate a standard curve. […] Recombinant m4-1BBL protein was used to generate a standard curve.

[2] = biological target: T1, recombinant mouse m4-1BB protein; experiment: Dual ELISA: capture anti-FLT3L (R&D AF427), detection with m41BB-His (Acro), tertiary anti-His/HRP (Abcam)
Experimental: Capture was performed with an anti-FLT3L antibody, followed by detection of the co-stimulatory domain with a his-tagged recombinant protein, and visualized using an anti-his/HRP antibody.

[3] = biological target: T1, recombinant mouse m4-1BB protein; experiment: ELISA: plate-bound m41BB (3.3ug/ml), detection anti-m41BBL (1:1000) and anti-goat IgG (1:10,000)
Text: as §1

[4] = biological target: T3, anti-mIgG; experiment: ELISA: plate-bound anti-mIgG (10ug/ml), detection anti-mIgG-HRP (1:1000); remark: listed apart in the source
Text: as §1
Recombinant mFLT3L protein was used to generate a standard curve. […] A mouse whole IgG was used to generate a standard curve. […] Recombinant mOX40L protein was used to generate a standard curve.

[5] = biological target: T2, recombinant mouse mFLT3 protein; experiment: Octet biolayer interferometry, mFLT3-his captured on the sensor
Text: Octet was used to determine on-/off-rates and binding affinities to the target receptors.

Row | Binder | EC50 (read off the curve) [1] [nM] | EC50 (read off the curve) [2] [nM] | EC50 (read off the curve) [3] [nM] | EC50 (read off the curve) [4] [nM] | binding result [5]
1 | mFLT3L-Fc-4-1BBL chimeric protein (Fc fusion, murine;mouse (printed as mFc), UniProt P49772 27-189, looked up, extracellular domain;domain: hinge-CH2-CH3 Fc domain; Expressed in 293 cells, purified on protein A; also called murine FLT3L-Fc-4-1BBL) GTPDCYFSHSPISSNFKVKFRELTDHLLKDYPVTVAVNLQDEKHCKALWSLFLAQRWIEQLKTVAGSKMQTLLEDVNTEIHFVTSCTFQPLPECLRFVQTNISHLLKDTCTQLLALKPCIGKACQNFSRCLEVQCQPDSSTLLPPRSPIALEATELPEPRPRQVPRDCGCKPCICTVPEVSSVFIFPPKPKDVLTITLTPKVTCVVVDISKDDPEVQFSWFVDDVEVHTAQTQPREEQFNSTFRSVSELPIMHQDWLNGKEFKCRVNSAAFPAPIEKTISKTKGRPKAPQVYTIPPPKEQMAKDKVSLTCMITDFFPEDITVEWQWNGQPAENYKNTQPIMNTNGSYFVYSKLNVQKSNWEAGNTFTCSVLHEGLHNHHTEKSLSHSPGKRTEPRPALTITTSPNLGTRENNADQVTPVSHIGCPNTTQQGSPVFAKLLAKNQASLCNTTLNWHSQDGAGSSYLSQGLRYEEDKKELVVDSPGLYYVFLELKLSPTFTNTGHKVQGWVSLVLQAKPQVDDFDNLALTVELFPCSMENKLVDRSWSQLLLLKAGHRLSVGLRAYLHGAQDAYRDWELSYPNTTSFGLFLVKPDNPWE | ~7 | ~1 | ~9 | ~7 | –
2 | mCD40L-Fc (Acro) (Fc fusion, mouse, UniProt P27548 112-260, looked up, soluble part fused to Fc; also called commercially available mCD40L-Fc (Acro Biosystems)) fusion chain: MQRGDEDPQIAAHVVSEANSNAASVLQWAKKGYYTMKSNLVMLENGKQLTVKREGLYYVYTQVTFCSNREPSSQRPFIVGLWLKPSSGSERILLKAANTHSSSQLCEQQSVHLGGVFELQAGASVFVNVTEASQVIHRVGFSSFGLLKL | – | – | – | – | no binding (tested: concentration not printed)
